Test results as given in patent US20030166036.

Tests used:
[1] = molecular target: proPSA (precursor, zymogen form of PSA), recombinant, P07288
[2] = molecular target: prostate specific antigen (PSA), mature form
Chain of prostate specific antigen (PSA), mature form (chain, as listed by the source): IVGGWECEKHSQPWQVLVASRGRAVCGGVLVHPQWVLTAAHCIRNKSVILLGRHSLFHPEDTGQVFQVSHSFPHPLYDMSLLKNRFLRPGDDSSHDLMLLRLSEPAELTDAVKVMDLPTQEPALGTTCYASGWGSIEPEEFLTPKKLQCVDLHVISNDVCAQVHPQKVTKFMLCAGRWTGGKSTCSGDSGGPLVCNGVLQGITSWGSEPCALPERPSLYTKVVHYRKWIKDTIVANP

Chain of proPSA (precursor, zymogen form of PSA), recombinant, P07288 (P07288 18-261): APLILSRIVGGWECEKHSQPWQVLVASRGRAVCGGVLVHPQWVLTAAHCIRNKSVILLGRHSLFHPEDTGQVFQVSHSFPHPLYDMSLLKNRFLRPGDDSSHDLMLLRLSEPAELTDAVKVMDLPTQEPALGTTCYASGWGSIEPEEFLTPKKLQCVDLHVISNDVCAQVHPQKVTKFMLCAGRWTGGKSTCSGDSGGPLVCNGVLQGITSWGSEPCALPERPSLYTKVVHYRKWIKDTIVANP

B1: lysyl endopeptidase C (Wako Chemicals USA) (protein)
chain: GVSGSCNIDVVCPEGDGRRDIIRAVGAYSKSGTLACTGSLVNNTANDRKMYFLTAHHCGMGTASTAASIVVYWNYQNSTCRAPNTPASGANGDGSMSQTQSGSTVKATYATSDFTLLELNNAANPAFNLFWAGWDRRDQNYPGAIAIHHPNVAEKRISNSTSPTSFVAWGGGAGTTHLNVQWQPSGGVTEPGSSGSPIYSPEKRVLGQLHGGPSSCSATGTNRSDQYGRVFTSWTGGGAAASRLSDWLDPASTGAQFIDGLDSGGGTP
initial rate of cleavage of the Lys182 in pPSA [1]: 8% per minute
rate of cleavage at Lys145 in pPSA [1]: about 0.6% per minute
initial rate of cleavage at Lys182 [2]: 12% per minute
percent of PSA cleaved at Lys182 after 30 minutes of incubation [2]: 100% of the PSA had been cleaved at Lys182
rate of cleavage at Lys145 [2]: 0.3% per minute
relative rate of cleavage, Lys182 against Lys145 [2]: Lys182 is cleaved approximately 30 times more rapidly than Lys145 by LysC
